# B1: GRIP1 (expressed in HEKTrkB cells) (natural protein, UniProt P97879 1-1112, looked up)
# chain: MIAVSFKCRCQILRRLTKDESPYTKSASQTKPPDGALAVRRQSIPEEFKGSTVVELMKKEGTTLGLTVSGGIDKDGKPRVSNLRQGGIAARSDQLDVGDYIKAVNGINLAKFRHDEIISLLKNVGERVVLEVEYELPPVSIQGSSVMFRTVEVTLHKEGNTFGFVIRGGAHDDRNKSRPVVITCVRPGGPADREGTIKPGDRLLSVDGIRLLGTTHAEAMSILKQCGQEATLLIEYDVSVMDSVATASGPLLVEVAKTPGASLGVALTTSVCCNKQVIVIDKIKSASIADRCGALHVGDHILSIDGTSMEYCTLAEATQFLANTTDQVKLEILPHHQTRLALKGPDHVKIQRSDRQLPWDPWASSQCSVHTNHHHNPHHPDHCRVPALGFPKALTPNSPPAMVSSSSPTSMSAYSLSSLNMGTLPRSLYSTSPRGTMMRRRLKKKDFKSSLSLASSTVGLAGQVVHTETTEVVLTADPVTGFGIQLQGSVFATETLSSPPLISYIEADSPAERCGVLQIGDRVMAINGIPTEDSTFEEANQLLRDSSITSKVTLEIEFDVAESVIPSSGTFHVKLPKKHSVELGITISSPSSRKPGDPLVISDIKKGSVAHRTGTLELGDKLLAIDNIRLDSCSMEDAVQILQQCEDLVKLKIRKDEDNSDEQESSGAIIYTVELKRYGGPLGITISGTEEPFDPIIISSLTKGGLAERTGAIHIGDRILAINSSSLKGKPLSEAIHLLQMAGETVTLKIKKQTDAQPASSPKKLPIPSHSSDLGDGEEDPSPIQRPGKLSDVYPSTVPSVDSAVDSWDGSGIDARYGSQGTTFQTSGYNFNTYDWRSPKKRASLSPVPKPRSQTYPDVGLSNEDWDRSTASGFAGASDSADAEQEENFWSQALEDLETCGQSGILRELEATIMSGSTMSLNHEAPTARSQLGRQASFQERSNSRPHYSQTTRSNTLPSDVGRKSVTLRKMKQEIKEIMSPTPVELHKVTLYKDSGMEDFGFSVADGLLEKGVYVKNIRPAGPGDLGGLKPYDRLLQVNHVRTRDFDCCLVVPLIAESGNKLDLVISRNPLASQKSIEQPALPSDWSEQNSAFFQQPSHGGNLETREPTNTL
# notes: source: HEKTrkB cells, transiently co-transfected (cDNA downstream from the CMV promoter), in lysate
# Biological target: T1, GluR2 (wild type, full length, expressed in HEKTrkB cells) (UniProt P19491 22-883)
# T1 construct: AMPA receptor subunit GluR2, wild type cDNA in a CMV expression vector; the deletion mutants of the same cDNA end at residue 862; also called WT GluR2; full length GluR2; source: HEKTrkB cells, transiently co-transfected (cDNA downstream from the CMV promoter), in lysate
# T1 sequence (P19491 22-883): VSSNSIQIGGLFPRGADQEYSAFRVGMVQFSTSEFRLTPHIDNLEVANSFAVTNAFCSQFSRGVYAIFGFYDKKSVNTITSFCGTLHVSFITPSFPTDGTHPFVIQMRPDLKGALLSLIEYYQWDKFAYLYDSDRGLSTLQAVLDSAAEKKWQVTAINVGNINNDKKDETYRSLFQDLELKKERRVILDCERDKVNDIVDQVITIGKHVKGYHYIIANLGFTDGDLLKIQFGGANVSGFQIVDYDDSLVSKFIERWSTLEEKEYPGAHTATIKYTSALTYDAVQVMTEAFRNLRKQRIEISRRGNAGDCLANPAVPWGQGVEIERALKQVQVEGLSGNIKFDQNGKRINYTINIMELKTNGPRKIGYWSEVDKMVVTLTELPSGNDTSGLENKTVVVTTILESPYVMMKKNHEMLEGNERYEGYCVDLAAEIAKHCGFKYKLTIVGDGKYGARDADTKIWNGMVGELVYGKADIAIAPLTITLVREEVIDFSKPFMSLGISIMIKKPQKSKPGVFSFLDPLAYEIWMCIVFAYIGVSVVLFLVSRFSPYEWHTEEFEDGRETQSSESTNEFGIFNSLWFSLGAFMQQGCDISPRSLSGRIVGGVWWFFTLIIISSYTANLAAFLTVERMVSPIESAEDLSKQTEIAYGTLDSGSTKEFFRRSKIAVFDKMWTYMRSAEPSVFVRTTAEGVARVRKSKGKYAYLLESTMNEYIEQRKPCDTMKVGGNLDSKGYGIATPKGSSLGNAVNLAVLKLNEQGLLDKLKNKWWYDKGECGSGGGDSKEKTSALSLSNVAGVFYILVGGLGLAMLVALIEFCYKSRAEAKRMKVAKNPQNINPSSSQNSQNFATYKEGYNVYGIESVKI
# Test: co-IP; lysate of HEKTrkB cells co-transfected with GluR2 and GRIP1, treated with BDNF (1 h, 50 ng/mL) or not; precipitation with anti-N-terminal GluR2 and blot with anti-GRIP1, or precipitation with anti-GRIP1 and blot with anti-C-terminal GluR2/3
# Settings: partners not purified
binder,measurement,value
B1,"fold change of the co-precipitate, 1 h BDNF against untreated cells",~6 fold
